Measurements published in patent publication US20180000755A1 (UNIVERSITY OF TOKYO, published 2018).

Molecular target: T1, fragment consisting of the region of the 500th to 656th amino acids of FROUNT protein (Homo sapiens (Human), UniProt Q9BW27 500-656)
T1 construct: Fragment used in the NMR analysis; No tag is mentioned; also called FROUNT C-terminal fragment
T1 sequence: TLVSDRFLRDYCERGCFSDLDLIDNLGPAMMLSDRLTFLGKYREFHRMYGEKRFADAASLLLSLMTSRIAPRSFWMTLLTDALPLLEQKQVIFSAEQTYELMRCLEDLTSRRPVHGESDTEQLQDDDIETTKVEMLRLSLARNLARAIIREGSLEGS
Test: NMR chemical shift perturbation

B1: CCR2 pro-C region fragment of 16 residues (SEQ ID NO:3) (peptide)
peptide: EKFRRYLSVFFRKHIT
notes: Peptide used in the NMR analysis; No biotinylation is mentioned
B1: binds.
